Test results published in US20230145060A1.
Like-named read-outs stand apart in the source and are kept apart here.

What was measured:
Assay in all cases: cell-based or functional assay
[1] = target: HIV-1 Env of pseudovirus X2088 (HIV-1)
[2] = target: HIV-1 Env of pseudovirus Du422 (HIV-1)
[3] = target: HIV-1 Env of pseudovirus T257 (HIV-1)
[4] = target: HIV-1 Env of pseudovirus JRCSF (HIV-1) (UniProt P20871)
[5] = target: HIV-1 Env of pseudovirus 3817 (HIV-1)
[6] = target: HIV-1 Env of pseudovirus ZM106 (HIV-1)
[7] = target: HIV-1 Env of pseudovirus 278 (HIV-1)
[8] = target: HIV-1 Env of pseudovirus THRO (HIV-1)
[9] = target: HIV-1 Env of pseudovirus pCNE8 (HIV-1)
[10] = target: HIV-1 Env of pseudovirus PV0 (HIV-1)
[11] = target: HIV-1 Env of pseudovirus ZM197 (HIV-1)
[12] = target: HIV-1 Env of pseudovirus X1632 (HIV-1)
[13] = target: HIV-1 Env of pseudovirus BG505 (HIV-1)
[14] = target: HIV-1 Env of pseudovirus SF162 (HIV-1) (UniProt P19550)
[15] = target: HIV-1 Env of pseudovirus X2088 (HIV-1); remark: listed apart in the source
[16] = target: HIV-1 Env of pseudovirus Du422 (HIV-1); remark: listed apart in the source
[17] = target: HIV-1 Env of pseudovirus T257 (HIV-1); remark: listed apart in the source
[18] = target: HIV-1 Env of pseudovirus JRCSF (HIV-1) (UniProt P20871); remark: listed apart in the source
[19] = target: HIV-1 Env of pseudovirus 3817 (HIV-1); remark: listed apart in the source
[20] = target: HIV-1 Env of pseudovirus ZM106 (HIV-1); remark: listed apart in the source
[21] = target: HIV-1 Env of pseudovirus 278 (HIV-1); remark: listed apart in the source
[22] = target: HIV-1 Env of pseudovirus THRO (HIV-1); remark: listed apart in the source
[23] = target: HIV-1 Env of pseudovirus pCNE8 (HIV-1); remark: listed apart in the source
[24] = target: HIV-1 Env of pseudovirus PV0 (HIV-1); remark: listed apart in the source
[25] = target: HIV-1 Env of pseudovirus ZM197 (HIV-1); remark: listed apart in the source
[26] = target: HIV-1 Env of pseudovirus X1632 (HIV-1); remark: listed apart in the source
[27] = target: HIV-1 Env of pseudovirus BG505 (HIV-1); remark: listed apart in the source
[28] = target: HIV-1 Env of pseudovirus SF162 (HIV-1) (UniProt P19550); remark: listed apart in the source

Row | Substance | IC50, neutralization of X2088 PsV [1] [pM] | IC50, neutralization of Du422 PsV [2] [pM] | IC50, neutralization of T257 PsV [3] [pM] | IC50, neutralization of JRCSF PsV [4] [pM] | IC50, neutralization of 3817 PsV [5] [pM] | IC50, neutralization of ZM106 PsV [6] [pM] | IC50, neutralization of 278 PsV [7] [pM] | IC50, neutralization of THRO PsV [8] [pM] | IC50, neutralization of pCNE8 PsV [9] | IC50, neutralization of PV0 PsV [10] [pM] | IC50, neutralization of ZM197 PsV [11] [pM] | IC50, neutralization of X1632 PsV [12] [pM] | IC50, neutralization of BG505 PsV [13] [pM] | IC50, neutralization of SF162 PsV [14] [pM] | IC50, neutralization of X2088 PsV [15] [µg/mL] | IC50, neutralization of Du422 PsV [16] [µg/mL] | IC50, neutralization of T257 PsV [17] [µg/mL] | IC50, neutralization of JRCSF PsV [18] [µg/mL] | IC50, neutralization of 3817 PsV [19] [µg/mL] | IC50, neutralization of ZM106 PsV [20] [µg/mL] | other results
1 | 10E8v4 IgG (antibody) | > 100000 | 3700 | 9800 | 12000 | 21000 | > 100000 | 12000 | 2500 | 0.0064 µM | 42000 | 1300 | 13000 | 9000 | 20000 | > 50 | 0.55 | 1.5 | 1.8 | 3.1 | > 50 | IC50, neutralization of 278 PsV [21]: 1.8 µg/mL; IC50, neutralization of THRO PsV [22]: 0.37 µg/mL; IC50, neutralization of pCNE8 PsV [23]: 0.96 µg/mL; IC50, neutralization of PV0 PsV [24]: 6.3 µg/mL; IC50, neutralization of ZM197 PsV [25]: 0.19 µg/mL; IC50, neutralization of X1632 PsV [26]: 2.02 µg/mL; IC50, neutralization of BG505 PsV [27]: 1.4 µg/mL
2 | 32-I multabody (PGDM1400 scFab-human apoferritin : scFc-N-Ferritin : iMab A12P scFab-C-Ferritin : 10E8v4 scFab-C-Ferritin, 4:2:1:1) | 1300 | 310 | 0.68 | 1.7 | 790 | 1.4 | 3.5 | 14 | 0.57 pM | 52 | 1.9 | 3.4 | 1.1 | 1100 | 3.1 | 0.7 | 0.0015 | 0.004 | 1.8 | 0.0031 | IC50, neutralization of 278 PsV [21]: 0.008 µg/mL; IC50, neutralization of THRO PsV [22]: 0.033 µg/mL; IC50, neutralization of pCNE8 PsV [23]: 0.0013 µg/mL; IC50, neutralization of PV0 PsV [24]: 0.12 µg/mL; IC50, neutralization of ZM197 PsV [25]: 0.0044 µg/mL; IC50, neutralization of X1632 PsV [26]: 0.008 µg/mL; IC50, neutralization of BG505 PsV [27]: 0.0026 µg/mL; IC50, neutralization of SF162 PsV [28]: 2.5 µg/mL
3 | 32-N multabody (PGDM1400 scFab-human apoferritin : scFc-N-Ferritin : N49P7 scFab-C-Ferritin : 10E8v4 scFab-C-Ferritin, 4:2:1:1) | 2300 | 1080 | 1.6 | 2.3 | 3900 | 3.9 | 3.9 | 25 | 1.4 pM | 150 | 4.2 | 2 | 1.9 | 580 | 5.2 | 2.5 | 0.0037 | 0.0054 | 9.1 | 0.0089 | IC50, neutralization of 278 PsV [21]: 0.009 µg/mL; IC50, neutralization of THRO PsV [22]: 0.058 µg/mL; IC50, neutralization of pCNE8 PsV [23]: 0.0032 µg/mL; IC50, neutralization of PV0 PsV [24]: 0.33 µg/mL; IC50, neutralization of ZM197 PsV [25]: 0.0096 µg/mL; IC50, neutralization of X1632 PsV [26]: 0.0045 µg/mL; IC50, neutralization of BG505 PsV [27]: 0.0045 µg/mL; IC50, neutralization of SF162 PsV [28]: 1.3 µg/mL
